One molecule from patent US20150139990A1 (DAINIPPON SUMITOMO PHARMA, published 2015) can be followed below.

What all share (experiment): ELISA
Assay [1] deals with T1, cCD81 (chicken CD81 construct with C-terminal V5 and 6xHis tags) (chicken).
T1 construct: as m30; not shown: C-terminal V5 and 6xHis tags
T1 chain: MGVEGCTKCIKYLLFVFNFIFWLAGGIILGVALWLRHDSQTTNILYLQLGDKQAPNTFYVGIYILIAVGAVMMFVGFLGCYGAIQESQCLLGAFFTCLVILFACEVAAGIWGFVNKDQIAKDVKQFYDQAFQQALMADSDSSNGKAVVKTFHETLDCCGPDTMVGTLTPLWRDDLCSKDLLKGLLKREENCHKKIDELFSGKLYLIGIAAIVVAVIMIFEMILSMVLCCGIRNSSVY
Here is the method:
(§1) To identify the epitopes to which each of the anti-human CD81 antibodies (002-A07 and 005-001) bind, ELISA assays were performed using human-chicken CD81 chimera constructs listed in Table 6. Each construct was transiently expressed in CHO cells and its cell membrane fraction was solubilized with detergents and immobilized onto a plate.
(§2) As control antibodies, human IgG4 antibody (Acris Antibodies GmbH) and mouse IgG antibody were used. Human-chicken chimera protein was captured via His tag introduced into the C-terminal by adding the membrane fraction (5 μg/100 μL/well) prepared (1) above to Ni NTA His Sorb plate (QIAGEN) in the presence of 1% (w/v) n-Octylglucoside and incubating for 3 hours at 4° C. After washing with TBST (TBS, 0.05% (v/v) Tween 20) three times, an anti-human CD81 antibody or a control antibody (50 μL/well) was added and incubated for 1 hour at room temperature (RT). After washing, 2000 fold-diluted HRP-labeled anti-human IgG4 antibody (Mouse anti-human IgG₄ HRP clone:HP6023 Beckman Coulter) or 1000 fold-diluted HRP-labeled anti-mouse IgG antibody (Invitrogen) (50 μL/well) were added. The plate was incubated for 1 hour at RT and washed with TBST three times. And then, peroxidase activity was determined by TMB One solution (Promega; Code 53025). The reaction was stopped with 2 M H₂SO₄ (50 μL) and absorbance at 450 nm was measured.

For assay [2], the target named is T2, c80h human-chicken CD81 chimera (chicken; human, UniProt P60033 1-236).
T2 construct: as m30; not shown: C-terminal V5 and 6xHis tags
T2 chain: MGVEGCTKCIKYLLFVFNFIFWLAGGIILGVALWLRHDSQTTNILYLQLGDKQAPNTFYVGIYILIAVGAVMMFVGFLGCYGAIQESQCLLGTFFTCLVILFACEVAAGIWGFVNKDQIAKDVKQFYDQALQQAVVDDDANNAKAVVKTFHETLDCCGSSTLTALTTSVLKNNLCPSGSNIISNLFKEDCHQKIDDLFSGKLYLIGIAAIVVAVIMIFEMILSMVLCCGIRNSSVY
Here is the method: as §1, §2

Assay [3] concerns the target T3, c156h human-chicken CD81 chimera (chicken; human, UniProt P60033 1-236).
T3 construct: as m30; not shown: C-terminal V5 and 6xHis tags
T3 chain: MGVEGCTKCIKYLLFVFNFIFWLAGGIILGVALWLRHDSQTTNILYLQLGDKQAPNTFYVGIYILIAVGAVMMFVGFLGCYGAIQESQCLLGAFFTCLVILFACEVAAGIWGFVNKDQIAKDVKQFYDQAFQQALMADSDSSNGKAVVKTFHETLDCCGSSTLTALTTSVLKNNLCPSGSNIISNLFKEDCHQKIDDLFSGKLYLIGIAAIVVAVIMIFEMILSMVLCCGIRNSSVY
The protocol: as §1, §2

Assay [4] has as its target T4, h80c human-chicken CD81 chimera (human; chicken).
T4 construct: as m30; not shown: C-terminal V5 and 6xHis tags
T4 chain: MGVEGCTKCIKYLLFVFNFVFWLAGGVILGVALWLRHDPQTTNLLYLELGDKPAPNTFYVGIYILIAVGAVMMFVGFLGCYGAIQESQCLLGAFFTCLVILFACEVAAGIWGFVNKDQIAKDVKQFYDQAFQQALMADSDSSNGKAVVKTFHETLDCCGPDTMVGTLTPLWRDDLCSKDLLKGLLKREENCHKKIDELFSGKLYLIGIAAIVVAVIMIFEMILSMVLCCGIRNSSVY
The protocol: as §1, §2

Assay [5] deals with T5, h138c human-chicken CD81 chimera (human; chicken).
T5 construct: as m30; not shown: C-terminal V5 and 6xHis tags
T5 chain: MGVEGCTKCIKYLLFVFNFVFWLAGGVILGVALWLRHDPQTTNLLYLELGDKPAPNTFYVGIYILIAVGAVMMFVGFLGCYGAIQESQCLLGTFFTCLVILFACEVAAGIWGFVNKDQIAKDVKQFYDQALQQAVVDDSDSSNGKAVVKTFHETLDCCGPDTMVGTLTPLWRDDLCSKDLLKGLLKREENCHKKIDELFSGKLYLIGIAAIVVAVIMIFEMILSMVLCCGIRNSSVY
The protocol: as §1, §2

In assay [6] the target is T6, h156c human-chicken CD81 chimera (human; chicken).
T6 construct: as m30; not shown: C-terminal V5 and 6xHis tags
T6 chain: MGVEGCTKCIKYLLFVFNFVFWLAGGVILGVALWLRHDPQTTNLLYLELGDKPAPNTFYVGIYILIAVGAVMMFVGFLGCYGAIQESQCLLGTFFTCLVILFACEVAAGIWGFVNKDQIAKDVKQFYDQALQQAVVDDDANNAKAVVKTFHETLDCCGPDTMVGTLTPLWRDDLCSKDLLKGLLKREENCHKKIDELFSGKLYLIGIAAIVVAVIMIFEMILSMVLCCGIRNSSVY
Here is the method: as §1, §2

Assay [7] deals with T7, h175c human-chicken CD81 chimera (human; chicken, UniProt P60033 1-236).
T7 construct: as m30; not shown: C-terminal V5 and 6xHis tags
T7 chain: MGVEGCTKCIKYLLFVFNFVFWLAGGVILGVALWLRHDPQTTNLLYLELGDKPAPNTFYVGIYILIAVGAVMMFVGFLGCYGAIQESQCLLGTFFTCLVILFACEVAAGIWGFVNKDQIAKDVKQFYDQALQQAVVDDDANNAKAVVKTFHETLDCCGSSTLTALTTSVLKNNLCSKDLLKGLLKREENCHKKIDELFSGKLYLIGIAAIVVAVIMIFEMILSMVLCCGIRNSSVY
The protocol:
as §1, §2

For assay [8], the target named is T8, h190c human-chicken CD81 chimera (human; chicken, UniProt P60033 1-236).
T8 construct: as m30; not shown: C-terminal V5 and 6xHis tags
T8 chain: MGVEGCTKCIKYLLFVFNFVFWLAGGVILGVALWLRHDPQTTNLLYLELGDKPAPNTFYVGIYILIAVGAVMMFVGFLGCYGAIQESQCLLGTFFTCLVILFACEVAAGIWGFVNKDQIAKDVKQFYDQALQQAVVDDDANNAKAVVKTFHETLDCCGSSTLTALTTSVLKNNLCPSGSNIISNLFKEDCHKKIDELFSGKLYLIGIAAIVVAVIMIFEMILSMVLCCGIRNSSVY
The protocol: as §1, §2

B1: 002-A07 IgG4 antibody (antibody)
heavy: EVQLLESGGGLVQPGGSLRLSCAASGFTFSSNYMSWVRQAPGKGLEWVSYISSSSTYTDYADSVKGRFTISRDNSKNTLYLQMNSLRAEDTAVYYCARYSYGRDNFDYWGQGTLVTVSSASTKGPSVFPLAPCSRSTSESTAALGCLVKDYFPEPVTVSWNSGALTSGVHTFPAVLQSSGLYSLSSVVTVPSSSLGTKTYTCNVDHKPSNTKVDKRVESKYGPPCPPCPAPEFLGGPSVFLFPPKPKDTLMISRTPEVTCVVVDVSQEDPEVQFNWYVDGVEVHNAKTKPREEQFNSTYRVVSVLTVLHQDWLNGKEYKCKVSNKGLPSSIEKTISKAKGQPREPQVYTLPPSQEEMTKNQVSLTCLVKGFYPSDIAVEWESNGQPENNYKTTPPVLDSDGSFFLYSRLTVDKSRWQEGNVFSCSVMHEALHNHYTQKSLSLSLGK
light: QSVLTQPPSASGTPGQRVTISCTGSTSNIGAGYDTHWYQQLPGTAPKLLIYGNSNRPSGVPDRFSGSKSGTSASLAISGLRSEDEADYYCQSYDTNLSVWVFGGGTKLTVLGQPKAAPSVTLFPPSSEELQANKATLVCLISDFYPGAVTVAWKADSSPVKAGVETTTPSKQSNNKYAASSYLSLTPEQWKSHRSYSCQVTHEGSTVEKTVAPTECS
notes: human IgG4 S228P, lambda light chain
On to B1, for which the “absorbance at 450 nm relative to hCD81” value in assay [1], in assay [3], in assay [4], in assay [5] and in assay [6] was < 10% throughout. Also, the binding result in assay [2], in assay [7] and in assay [8] was “binds” in each case.
